Reference: patent US20260374834 (published 2026)

B1: WM2 (designed binder)
chain: YFPKLRSKLSVIRNLNDQVLFIDQGNRPLFEDMTDSDCRDNAPRTIFIISMYKDSQPRGMAVTISVKCEKISTLSCENKIISFKEMNPPDNIKDTESDIIFFQRSVPGHDNKMQFESSSYEGYFLACEKERDLFKLILKKEDELGDRSIMFTVQNED
B2: M36 (designed binder)
chain: YFPKLSSKLSVIRNLNDQVLFIDQGNRPLFEDMTDSDCRDNAPRTIFIISMYKASDQRGMAVTISVKCEKISTLSCENKIISFKEMNPPDGIKDTKSDIIFFQRSVPGHDNKMQFESSSYEGYFLACEKERDLFKLILKKEDELGDRSIMFTVQNED
B3: WM8 (designed binder)
chain: YFPKLRSKLSVIRNLNDQVLFIDQGNRPLFEDMTDSDCRDNAPRTIFIISMYKDSQPRGMAVTISVKCEKISTLSCENKIISFKEMNPPDSIKDTKSDIIFFQRSVPGHDNKMQFESSSYEGYFLACEKERDLFKLILKKEDELGDRSIMFTVQNED
B4: M6 (designed binder)
chain: YFPKLRSKLSVIRNLNDQVLFIDQGNRPLFEDMTDSDCRDNAPRTIFIISMYKWSTPRGMAVTISVKCEKISTLSCENKIISFKEMNPPDVIKDTKSDIIFFQTSVPGHDNKMQFESSSYEGYFLACEKERDLFKLILKKEDELGDRSIMFTVQNED

Molecular target: T1, hIL-18Ra ECD-Fc (human, UniProt Q13478)
T1 chain: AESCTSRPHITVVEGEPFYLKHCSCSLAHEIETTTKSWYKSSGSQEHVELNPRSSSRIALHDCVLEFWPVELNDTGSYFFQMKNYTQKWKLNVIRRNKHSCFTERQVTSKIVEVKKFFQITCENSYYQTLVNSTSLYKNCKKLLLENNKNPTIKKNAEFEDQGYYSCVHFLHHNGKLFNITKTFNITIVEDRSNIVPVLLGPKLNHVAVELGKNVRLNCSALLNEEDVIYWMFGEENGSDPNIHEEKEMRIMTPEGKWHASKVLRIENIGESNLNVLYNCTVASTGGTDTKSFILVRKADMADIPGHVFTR
Experiment: BLI

Kd, > 1 µM:
B1
B2
B3
B4
